# Measured values taken from patent US20260035452A1 (THE UNIVERSITY OF BIRMINGHAM, priority 2022, published 2026).
# Marks after values point to notes of the source that are not given here.
# Experiments:
# [1] = Haematological investigations; format: in vivo; conditions: mice, 100 μg/mouse
# Procedure: To assess the neutralising activity of Ab-IPL-IL-17™, CD-1 mice were injected i.p. with 100 μg/mouse of Ab-IPL-IL-17™, MAB421 or secukinumab as positive controls. After 30 min, an i.p. injection of 10 μg/mouse of IL-17A, IL-17F or IL-17A/F heterodimer was administered. After 2 h blood was collected by intracardiac puncture and serum levels of (A) IL-17A, (B) IL-17F or (C) IL-17A/F heterodimer were quantified by Elisa. (C-F) For the evaluation of immunogenic effects CD-1 mice were injected i.p. with 100 μg of IgG1 isotype antibody (vehicle) or IL-17 neutralising antibodies (bimekizumab, secukinumab, MAB421 or Ab-IPL-IL-17™). In the selected time-point (2 h, 24 h, 72 h, 7 days, 14 days and 21 days) total IgG, IgG1, lymphocytes and platelets levels were determined by Elisa and haematological blood count test, respectively. Data are presented as mean±S.D. for n=5 mice per group. Statistical analysis was conducted by one or two-way ANOVA followed by Bonferroni's for multiple comparisons. *P≤0.05, **P≤0.01, ***P≤0.001 vs IL-17 group; ^#P≤0.05, ^##P≤0.01, ^###P≤0.001, ^####P≤0.0001 vs vehicle group.
# (§1) Standard laboratory procedures were used for blood sampling and measurements (95). Haematological investigations, for all experimental conditions, including blood count test, leukocyte, and sidereal formula were performed on citrated and not-anticoagulated blood samples, respectively. Serological tests were performed by CELL-DYN Sapphire purchased from Abbott S.R.L. (Milan, Italy). All procedures were conducted under strictly aseptic conditions.
# as §1, with “measurements.” for “measurements (95).”
# [2] = system: patients; conditions: cited from earlier work
substance,measurement,setting,value
Bimekizumab: IL-17 neutralising antibody (reference),GRA (Granulocytes),[1]; 2 h,0.24 ± 0.11 10^3/μL
same,HCT (Hematocrit),[1]; 2 h,29.96 ± 2.29%
same,HGB (Hemoglobin),[1]; 2 h,9.88 ± 1.02 g/dL
same,MCH (Mean Corpuscular Hemoglobin),[1]; 2 h,16.98 ± 1.38 pg
same,MCV (Mean Cell Volume),[1]; 2 h,61.22 ± 5.70 fL
same,MHCH,[1]; 2 h,30.00 ± 3.06 g/dL
same,MID,[1]; 2 h,0.36 ± 0.24 10^3/μL
same,MPV (Mean Platelet Volume),[1]; 2 h,4.64 ± 0.86 fL
same,PCT (Plateletcrit),[1]; 2 h,0.26 ± 0.07%
same,PWD (Platelet Distribution Width),[1]; 2 h,16.80 ± 1.42%
same,RBC (Red Blood Cells),[1]; 2 h,5.84 ± 1.62 10^6/μL
same,RDW (Red blood cells Distribution Width),[1]; 2 h,18.82 ± 1.75%
same,WBC (White Blood Cells),[1]; 2 h,3.90 ± 0.91 10^3/μL
same,GRA (Granulocytes),[1]; 24 h,0.22 ± 0.16 10^3/μL
same,HCT (Hematocrit),[1]; 24 h,29.56 ± 2.16%
same,HGB (Hemoglobin),[1]; 24 h,9.08 ± 1.55 g/dL
same,MCH (Mean Corpuscular Hemoglobin),[1]; 24 h,18.92 ± 1.42 pg
same,MCV (Mean Cell Volume),[1]; 24 h,62.32 ± 10.33 fL
same,MHCH,[1]; 24 h,30.70 ± 3.18 g/dL
same,MID,[1]; 24 h,0.42 ± 0.31 10^3/μL
same,MPV (Mean Platelet Volume),[1]; 24 h,5.00 ± 1.12 fL
same,PCT (Plateletcrit),[1]; 24 h,0.26 ± 0.06%
same,PWD (Platelet Distribution Width),[1]; 24 h,16.04 ± 1.30%
same,RBC (Red Blood Cells),[1]; 24 h,4.63 ± 0.99 10^6/μL
same,RDW (Red blood cells Distribution Width),[1]; 24 h,18.42 ± 1.18%
same,WBC (White Blood Cells),[1]; 24 h,4.60 ± 1.70 10^3/μL
same,GRA (Granulocytes),[1]; 72 h,0.30 ± 0.10 10^3/μL
same,HCT (Hematocrit),[1]; 72 h,22.04 ± 4.37** %
same,HGB (Hemoglobin),[1]; 72 h,7.10 ± 1.38* g/dL
same,MCH (Mean Corpuscular Hemoglobin),[1]; 72 h,21.46 ± 2.04* pg
same,MCV (Mean Cell Volume),[1]; 72 h,80.98 ± 9.17 fL
same,MHCH,[1]; 72 h,30.62 ± 5.57 g/dL
same,MID,[1]; 72 h,0.42 ± 0.22 10^3/μL
same,MPV (Mean Platelet Volume),[1]; 72 h,7.96 ± 1.95**** fL
same,PCT (Plateletcrit),[1]; 72 h,0.17 ± 0.03%
same,PWD (Platelet Distribution Width),[1]; 72 h,17.94 ± 2.99%
same,RBC (Red Blood Cells),[1]; 72 h,3.79 ± 1.02* 10^6/μL
same,RDW (Red blood cells Distribution Width),[1]; 72 h,17.12 ± 2.05%
same,WBC (White Blood Cells),[1]; 72 h,4.84 ± 2.49 10^3/μL
same,GRA (Granulocytes),[1]; 7 d,0.26 ± 0.11 10^3/μL
same,HCT (Hematocrit),[1]; 7 d,22.48 ± 3.74* %
same,HGB (Hemoglobin),[1]; 7 d,8.10 ± 1.33 g/dL
same,MCH (Mean Corpuscular Hemoglobin),[1]; 7 d,21.22 ± 3.74 pg
same,MCV (Mean Cell Volume),[1]; 7 d,72.78 ± 8.77 fL
same,MHCH,[1]; 7 d,29.36 ± 5.05 g/dL
same,MID,[1]; 7 d,0.46 ± 0.18 10^3/μL
same,MPV (Mean Platelet Volume),[1]; 7 d,6.78 ± 1.09* fL
same,PCT (Plateletcrit),[1]; 7 d,0.22 ± 0.07%
same,PWD (Platelet Distribution Width),[1]; 7 d,16.04 ± 2.71%
same,RBC (Red Blood Cells),[1]; 7 d,4.18 ± 0.93 10^6/μL
same,RDW (Red blood cells Distribution Width),[1]; 7 d,18.14 ± 3.00%
same,WBC (White Blood Cells),[1]; 7 d,5.08 ± 1.37 10^3/μL
same,GRA (Granulocytes),[1]; 14 d,0.20 ± 0.12 10^3/μL
same,HCT (Hematocrit),[1]; 14 d,28.36 ± 3.19%
same,HGB (Hemoglobin),[1]; 14 d,9.06 ± 1.84 g/dL
same,MCH (Mean Corpuscular Hemoglobin),[1]; 14 d,17.48 ± 1.38 pg
same,MCV (Mean Cell Volume),[1]; 14 d,61.10 ± 9.83 fL
same,MHCH,[1]; 14 d,29.96 ± 4.45 g/dL
same,MID,[1]; 14 d,0.40 ± 0.10 10^3/μL
same,MPV (Mean Platelet Volume),[1]; 14 d,5.66 ± 0.92 fL
same,PCT (Plateletcrit),[1]; 14 d,0.26 ± 0.05%
same,PWD (Platelet Distribution Width),[1]; 14 d,16.02 ± 1.63%
same,RBC (Red Blood Cells),[1]; 14 d,5.81 ± 1.41 10^6/μL
same,RDW (Red blood cells Distribution Width),[1]; 14 d,18.26 ± 2.28%
same,WBC (White Blood Cells),[1]; 14 d,3.00 ± 0.68 10^3/μL
same,GRA (Granulocytes),[1]; 21 d,0.22 ± 0.13 10^3/μL
same,HCT (Hematocrit),[1]; 21 d,29.20 ± 2.70%
same,HGB (Hemoglobin),[1]; 21 d,10.06 ± 1.27 g/dL
same,MCH (Mean Corpuscular Hemoglobin),[1]; 21 d,17.96 ± 1.57 pg
same,MCV (Mean Cell Volume),[1]; 21 d,62.92 ± 6.53 fL
same,MHCH,[1]; 21 d,30.50 ± 4.52 g/dL
same,MID,[1]; 21 d,0.32 ± 0.16 10^3/μL
same,MPV (Mean Platelet Volume),[1]; 21 d,5.02 ± 0.76 fL
same,PCT (Plateletcrit),[1]; 21 d,0.28 ± 0.03%
same,PWD (Platelet Distribution Width),[1]; 21 d,16.24 ± 1.83%
same,RBC (Red Blood Cells),[1]; 21 d,6.37 ± 1.11 10^6/μL
same,RDW (Red blood cells Distribution Width),[1]; 21 d,18.02 ± 1.34%
same,WBC (White Blood Cells),[1]; 21 d,3.32 ± 1.18 10^3/μL
brodalumab: licensed mAb in the IL-17-IL-17R pathway,side effect: intestinal inflammation,[2]; patients with IBD,enhanced intestinal inflammation
same,side effect: suicidal thoughts,[2]; some patients with psoriasis,suicidal thoughts in some patients with psoriasis
